Measured values published in patent publication US20210277098A1 (MITSUBISHI TANABE PHARMA, published 2021).
No end group written: not given here. *: point of attachment. Biotin = O=C1N[C@H]2[C@H](CS[C@H]2CCCCC(=O)*)N1

T1: mouse RGMa protein (R&D systems, 2458-RG) (mouse) (UniProt Q6PCX7)
T1 sequence: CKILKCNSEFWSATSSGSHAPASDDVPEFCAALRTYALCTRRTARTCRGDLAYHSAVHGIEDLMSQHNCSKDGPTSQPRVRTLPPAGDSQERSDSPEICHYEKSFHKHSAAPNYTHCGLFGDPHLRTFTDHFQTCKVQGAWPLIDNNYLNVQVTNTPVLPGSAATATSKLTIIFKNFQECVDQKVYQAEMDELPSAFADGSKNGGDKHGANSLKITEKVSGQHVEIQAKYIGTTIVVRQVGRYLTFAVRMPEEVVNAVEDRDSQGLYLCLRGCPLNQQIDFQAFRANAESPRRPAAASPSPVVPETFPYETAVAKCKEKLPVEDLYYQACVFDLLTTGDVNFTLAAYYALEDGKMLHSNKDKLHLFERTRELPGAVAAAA

T2: C-terminal domain of human RGMa protein (prepared in Example 1), Pro 169 to Gly 422 with C-terminal histidine … (human, UniProt Q96B86 169-422)
T2 construct: Secreted from CHO cells and purified on a nickel column; also called Human RGMa C-terminal domain; recombinant human RGMa protein; not shown: histidine tag at the C terminus
T2 sequence: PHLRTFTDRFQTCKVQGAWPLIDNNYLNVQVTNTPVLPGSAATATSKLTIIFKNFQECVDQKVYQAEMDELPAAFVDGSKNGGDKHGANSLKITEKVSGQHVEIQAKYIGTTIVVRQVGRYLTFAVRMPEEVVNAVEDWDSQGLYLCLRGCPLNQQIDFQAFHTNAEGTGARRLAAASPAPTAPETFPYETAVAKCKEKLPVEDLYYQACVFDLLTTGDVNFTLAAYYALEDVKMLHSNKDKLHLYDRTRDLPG

T3: Human RGMa protein (R&D systems, 2459-RM) (human, UniProt Q96B86 48-422, limits assumed)
T3 construct: Bought protein; also called Recombinant RGMa protein
T3 sequence: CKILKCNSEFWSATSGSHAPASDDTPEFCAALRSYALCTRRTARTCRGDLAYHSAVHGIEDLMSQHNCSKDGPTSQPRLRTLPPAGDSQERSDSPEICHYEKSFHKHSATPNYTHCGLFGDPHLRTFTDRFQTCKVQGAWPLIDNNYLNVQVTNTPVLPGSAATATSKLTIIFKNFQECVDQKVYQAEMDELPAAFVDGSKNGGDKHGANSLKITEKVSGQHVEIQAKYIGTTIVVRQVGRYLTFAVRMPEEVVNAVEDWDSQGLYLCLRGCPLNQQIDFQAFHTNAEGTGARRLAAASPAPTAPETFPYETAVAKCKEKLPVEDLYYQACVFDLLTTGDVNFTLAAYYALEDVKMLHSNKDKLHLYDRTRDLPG

T4: biotinylated SGSG-spacer peptide of human RGMa Val 301 to Gly 311 (human)
T4 construct: One of 83 peptides of 11 residues, immobilised on avidin-coated plates
T4 peptide: Biotin-SGSGVNAVEDWDSQG

T5: biotinylated SGSG-spacer peptide of human RGMa Lys 367 to Ala 377 (human)
T5 construct: One of 83 peptides of 11 residues, immobilised on avidin-coated plates
T5 peptide: Biotin-SGSGKLPVEDLYYQA

T6: biotinylated SGSG-spacer peptide of human RGMa Glu 298 to Asp 308 (human)
T6 construct: One of 83 peptides of 11 residues, immobilised on avidin-coated plates
T6 peptide: Biotin-SGSGEEVVNAVEDWD

T7: biotinylated SGSG-spacer peptide of human RGMa Asn 322 to Thr 332 (human)
T7 construct: One of 83 peptides of 11 residues, immobilised on avidin-coated plates
T7 peptide: Biotin-SGSGNQQIDFQAFHT

T8: biotinylated SGSG-spacer peptide of human RGMa Ile 325 to Glu 335 (human)
T8 construct: One of 83 peptides of 11 residues, immobilised on avidin-coated plates
T8 peptide: Biotin-SGSGIDFQAFHTNAE


Legend:
[1] = biological target: T1, mouse RGMa protein (R&D systems, 2458-RG) (mouse); test: SPR (Proteon XPR36), antigen amine-coupled on a GLC chip, antibody as analyte
[2] = biological target: Human RGMa protein (R&D systems, 2459-RM) (human) (UniProt Q96B86); test: as above
[3] = biological target: T2, C-terminal domain of human RGMa protein …; test: as above
Experimental: (§1) The affinity of the test antibodies (r116A3 and r70E4) and r5F9 (Comparative Example) for RGMa protein were measured by the surface plasmon resonance (SPR) method using Proteon XPR36 (Bio-Rad).
(§2) Human RGMa protein (R&D Systems, 2459-RM), the C-terminal domain of human RGMa protein (prepared in Example 1) or mouse RGMa protein (R&D Systems, 2458-RG) diluted to 10 μg/mL with 10 mM acetate buffer (pH4.5) was immobilized on a GLC sensor chip by amine coupling method.

[4] = biological target: T3, Human RGMa protein (R&D systems, …); test: as above
Experimental: as §1, §2

[5] = biological target: T1, mouse RGMa protein (R&D systems, 2458-RG) (mouse); test: SPR (Proteon XPR36), ratio of Kd values against r5F9
[6] = biological target: T4, biotinylated SGSG-spacer peptide of …; test: peptide scanning ELISA, biotinylated peptides on avidin-coated plates
Experimental: (§3) Epitopes to which the antibodies bind were determined by the peptide scanning method. A total of 83 kinds of peptides were synthesized by fusing the N-terminal side of the amino acid sequences consisting of 11 consecutive residues shifted by 3 residues contained in Arg 172 to Ala 424 of the human RGMa protein (SEQ ID NO: 1 in Sequence Listing) with a spacer sequence (SGSG) with biotinylated N terminus (SEQ ID NO: 46 in Sequence Listing). After immobilizing the peptides on avidin-coated plates, the test antibodies (B5.116A3 and B5.70E4) were allowed to react. Subsequently, a peroxidase-labeled rabbit anti-mouse Ig antibody (Dako, P026002) was allowed to react. After a substrate solution was added and color developed for a certain time, the absorbance was measured with a plate reader.

[7] = biological target: T5, biotinylated SGSG-spacer peptide of …; test: as above
Experimental: as §3

[8] = biological target: T6, biotinylated SGSG-spacer peptide of …; test: as above
Experimental: as §3

[9] = biological target: T7, biotinylated SGSG-spacer peptide of …; test: as above
Experimental: as §3

[10] = biological target: T8, biotinylated SGSG-spacer peptide of …; test: as above
Experimental: as §3

Row | Molecule | Kd [1] [nM] | Kd [2] [nM] | Kd [3] [nM] | Kd [4] [nM] | times stronger binding than r5F9 [5] [times] | binding result [6] | binding result [7] | binding result [8] | binding result [9] | binding result [10]
1 | mouse anti-human RGMa monoclonal antibody B5.116A3 (antibody, mouse IgG2b, kappa, V domains shown) VH: EVKLEESGGGLVQPGGSMKLSCAASGFTFSDAWMDWVRQSPEKGLEWVAEIRSKANNHATYYAESVKGRFTISRDDSKRSVYLQMNNLRAEDTGIYYCTRRDGAYWGQGTLVTVSA VL: DIQMTQTTSSLSASLGDRVTISCRASQDISSYLNWYQQKPDGTVKLLIYYTSRLHSGVPSRFSGSGSGTDYSLTISNLEQEDIATYFCQQLNTLPWTFGGGTKLEIKR | – | – | – | – | – | binds | binds | binds | binds | binds
2 | recombinant mouse antibody r70E4 (antibody, mouse IgG2b, kappa, V domains shown, Recombinant form of B5.70E4 expressed in HEK293F cells) VH: DVKLQESGPGLVKPSQSLSLTCSVTGYSITTSYYWNWIRQFPGNKLEWMGYISYDGTNNYNPSLKNRISITRDTSKNQFFLRLNSVTTEDTATYYCAGSFGYSQGTLVTVSA VL: DVVMTQTPLSLPVSLGDQASISCRSSQSLVHSNGNTYLHWYLQRPGQSPKLLIYKVSNRFSGVPDRFSGSGSGTDFTLKISRVEAEDLGLYFCSQSTHVPYTFGGGTKLEIKR | 174 | – | 1.12 | 2.43 | – | – | – | – | – | –

More lines, now with the values ahead:

Row | Kd [1] [nM] | Kd [2] [nM] | Kd [3] [nM] | Kd [4] [nM] | times stronger binding than r5F9 [5] [times] | binding result [6] | binding result [7] | binding result [8] | binding result [9] | binding result [10] | Molecule
3 | 8.98 | 1.59 | – | – | – | – | – | – | – | – | recombinant rat mouse chimeric antibody r5F9 (Comparative Example)
4 | 0.201 | – | 0.0568 | 0.0487 | 44 | – | – | – | – | – | recombinant mouse antibody r116A3 (antibody, mouse IgG2b, kappa, V domains shown, Recombinant form of B5.116A3 expressed in HEK293F cells) VH: EVKLEESGGGLVQPGGSMKLSCAASGFTFSDAWMDWVRQSPEKGLEWVAEIRSKANNHATYYAESVKGRFTISRDDSKRSVYLQMNNLRAEDTGIYYCTRRDGAYWGQGTLVTVSA VL: DIQMTQTTSSLSASLGDRVTISCRASQDISSYLNWYQQKPDGTVKLLIYYTSRLHSGVPSRFSGSGSGTDYSLTISNLEQEDIATYFCQQLNTLPWTFGGGTKLEIKR
